Assay results taken from PMC10706732.

Target: Human ceruloplasmin (human) (UniProt P00450)
Experiment: SPR; Biacore X100; human CP immobilised on CM5 chip by EDC/NHS (3.3 ng/mm2); LF or LF/8OA as analyte in HBS-P+ (150 mM NaCl, 10 mM Hepes pH 7.5, 0.05% polyoxyethylene sorbitan), 30 uL/min; 1:1 Langmuir model

UniProt P00450, sequence (P00450 20-1065): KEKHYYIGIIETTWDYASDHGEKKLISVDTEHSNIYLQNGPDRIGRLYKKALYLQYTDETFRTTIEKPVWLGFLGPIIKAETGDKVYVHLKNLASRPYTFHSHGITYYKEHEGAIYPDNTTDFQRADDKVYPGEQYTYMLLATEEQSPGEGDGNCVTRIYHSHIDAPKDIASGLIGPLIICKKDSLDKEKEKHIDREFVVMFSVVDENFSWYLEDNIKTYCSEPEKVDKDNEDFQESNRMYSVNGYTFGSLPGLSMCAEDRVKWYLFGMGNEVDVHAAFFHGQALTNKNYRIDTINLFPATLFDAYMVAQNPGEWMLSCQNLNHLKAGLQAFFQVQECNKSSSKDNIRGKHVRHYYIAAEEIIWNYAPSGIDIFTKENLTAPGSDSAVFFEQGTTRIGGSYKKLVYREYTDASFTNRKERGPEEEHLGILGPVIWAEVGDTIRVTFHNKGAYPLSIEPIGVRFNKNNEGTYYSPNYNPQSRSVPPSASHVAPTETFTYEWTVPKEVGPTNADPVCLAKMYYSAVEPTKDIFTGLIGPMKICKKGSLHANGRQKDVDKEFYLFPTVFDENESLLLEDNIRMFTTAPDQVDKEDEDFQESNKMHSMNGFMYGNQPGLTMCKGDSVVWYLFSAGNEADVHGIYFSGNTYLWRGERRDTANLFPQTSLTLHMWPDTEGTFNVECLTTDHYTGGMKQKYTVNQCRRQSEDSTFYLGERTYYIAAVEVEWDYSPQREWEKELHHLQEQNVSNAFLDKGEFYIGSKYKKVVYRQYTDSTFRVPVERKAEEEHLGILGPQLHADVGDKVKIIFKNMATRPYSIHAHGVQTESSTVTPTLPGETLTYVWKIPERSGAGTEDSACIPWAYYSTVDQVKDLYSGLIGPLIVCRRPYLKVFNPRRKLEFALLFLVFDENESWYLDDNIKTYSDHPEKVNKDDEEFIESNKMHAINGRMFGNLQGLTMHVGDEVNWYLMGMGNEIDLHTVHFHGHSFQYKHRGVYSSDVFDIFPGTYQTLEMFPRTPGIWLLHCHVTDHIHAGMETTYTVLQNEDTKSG

| Kd [nM] | Substance |
| --- | --- |
| 407 | Complex formed by one human lactoferrin molecule and eight molecules of oleic acid |
| 367 | Recombinant human lactoferrin (natural protein) |
